Results from paper PMC4104028.

Key:
[1] = molecular target: endogenous Atg16L1 (HEK293A) (UniProt Q676U5); test: GFP-Trap, immunoblot quantification; details: parent: est. 0.49; read off a plot
[2] = molecular target: FLAG-Atg16L1 E226R, Q8C0J2-3; test: GFP-Trap co-immunoprecipitation from mixed lysates, immunoblot quantification; details: parent: est. 2.5; read off a plot
[3] = molecular target: FLAG-Atg16L1 E226R E230R (ERER), Q8C0J2-3; test: as above; details: parent: est. 2.5; read off a plot
[4] = molecular target: FLAG-Atg16L1 E230R, Q8C0J2-3; test: as above; details: parent: est. 2.5; read off a plot
Sequence of FLAG-Atg16L1 E230R, Q8C0J2-3 (Q8C0J2 other isoform, or with tags, fused parts or gaps E230R | E230R): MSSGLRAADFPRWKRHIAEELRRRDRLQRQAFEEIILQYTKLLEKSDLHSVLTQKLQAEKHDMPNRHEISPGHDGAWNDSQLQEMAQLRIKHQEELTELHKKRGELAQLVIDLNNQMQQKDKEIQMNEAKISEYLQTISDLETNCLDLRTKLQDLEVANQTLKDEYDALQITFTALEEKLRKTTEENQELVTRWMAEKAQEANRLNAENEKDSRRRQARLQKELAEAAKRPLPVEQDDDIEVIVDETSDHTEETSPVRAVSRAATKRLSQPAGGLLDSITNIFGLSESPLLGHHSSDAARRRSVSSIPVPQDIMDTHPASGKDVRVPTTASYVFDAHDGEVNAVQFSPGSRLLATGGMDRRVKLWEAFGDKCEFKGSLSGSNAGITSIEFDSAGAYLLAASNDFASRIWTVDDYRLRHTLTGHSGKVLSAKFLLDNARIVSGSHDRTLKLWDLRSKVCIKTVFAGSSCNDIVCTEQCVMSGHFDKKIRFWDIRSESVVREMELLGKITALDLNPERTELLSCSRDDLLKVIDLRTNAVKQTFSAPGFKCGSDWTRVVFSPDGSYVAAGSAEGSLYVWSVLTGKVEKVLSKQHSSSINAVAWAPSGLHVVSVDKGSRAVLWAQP

Sequence of FLAG-Atg16L1 E226R, Q8C0J2-3 (Q8C0J2 other isoform, or with tags, fused parts or gaps E226R | E226R): as the sequence (Q8C0J2 other isoform, or with tags, fused parts or gaps E230R | E230R) above, with E226R, R230E counted along it
Sequence of FLAG-Atg16L1 E226R E230R (ERER), Q8C0J2-3 (Q8C0J2 other isoform, or with tags, fused parts or gaps E226R | E230R | E226R E230R): as the sequence (Q8C0J2 other isoform, or with tags, fused parts or gaps E230R | E230R) above, with E226R counted along it
Sequence of endogenous Atg16L1 (HEK293A) (Q676U5 whole entry): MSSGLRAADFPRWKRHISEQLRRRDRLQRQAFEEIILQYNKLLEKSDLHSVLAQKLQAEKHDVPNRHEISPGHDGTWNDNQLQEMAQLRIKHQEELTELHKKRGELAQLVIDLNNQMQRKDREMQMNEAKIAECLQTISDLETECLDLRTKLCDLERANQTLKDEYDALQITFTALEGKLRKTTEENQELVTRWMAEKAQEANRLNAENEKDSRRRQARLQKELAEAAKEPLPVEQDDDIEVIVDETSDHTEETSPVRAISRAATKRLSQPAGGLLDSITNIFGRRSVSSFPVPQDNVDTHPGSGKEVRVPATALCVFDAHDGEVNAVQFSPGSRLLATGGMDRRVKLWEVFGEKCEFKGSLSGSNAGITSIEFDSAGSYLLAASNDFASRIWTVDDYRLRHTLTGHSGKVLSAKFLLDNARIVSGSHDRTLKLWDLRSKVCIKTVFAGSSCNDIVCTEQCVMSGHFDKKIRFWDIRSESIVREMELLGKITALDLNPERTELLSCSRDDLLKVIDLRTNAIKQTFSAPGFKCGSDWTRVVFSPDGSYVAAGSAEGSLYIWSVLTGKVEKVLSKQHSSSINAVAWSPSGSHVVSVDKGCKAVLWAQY

Substance | response [2] | response [3] | response [4] | other results
GFP-WIPI2b FRRG to FTTG | – | – | – | response [1]: 0.79
m1; m3 WIPI2b:R108E; Atg16L1:E226R | 0.05 | – | – | –
m1; m3 WIPI2b:R108E; Atg16L1:E226R; Atg16L1:E230R | – | 0.13 | – | –
m1; m3 WIPI2b:R108E; Atg16L1:E230R | – | – | 0.87 | –
m1; m3 WIPI2b:R108E; WIPI2b:R125E; Atg16L1:E226R | 0.04 | – | – | –
m1; m3 WIPI2b:R108E; WIPI2b:R125E; Atg16L1:E226R; Atg16L1:E230R | – | 0.04 | – | –
m1; m3 WIPI2b:R108E; WIPI2b:R125E; Atg16L1:E230R | – | – | 0.05 | –
m1; m3 WIPI2b:R125E; Atg16L1:E226R | 0.05 | – | – | –
m1; m3 WIPI2b:R125E; Atg16L1:E226R; Atg16L1:E230R | – | 0.23 | – | –
m1; m3 WIPI2b:R125E; Atg16L1:E230R | – | – | 0.04 | –
